Laboratory results published in the nanobody polyreactivity screen of Harvey et al. (2022).

Assay: yeast display, Sf9 membrane polyspecificity reagent, FACS + sequencing; frameworks hold sequencing errors
Method in brief: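 Nanobodies came from a synthetic yeast display library in Saccharomyces cerevisiae BJ5465, induced with galactose for 36–48 hours and stained for 1 hour at 4 °C with 10% biotinylated, detergent-solubilized Sf9 membrane reagent. Cells were enriched on streptavidin microbeads and then FACS-sorted, with low and high (top ~1%) gates set on anti-HA fluorescence for expression and streptavidin fluorescence for reagent binding. Each polyreactivity label reflects the gate a clone came from. Genes were amplified by colony PCR, sequenced by MiSeq 2 × 250 and filtered by CDR length.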

Which “polyreactivity (PSR sort gate)” value does the source give for “QVQLVESGGGLVQAGGSLRLSCAASGSIFLDYAMGWYRQAPGKERELVAGITISGGSTYYAVSVKGRFTISRDNAKNTVYLQMYSLNREDTAVYYCAKVAPRSSSSQEYYYWGQGTQVTVSS” here?
The value was “low polyreactivity”.

With “QVQLVESGGGLVQAGGSLRLSCAASGFIFDSNVMGWYRQAPGKERELVATITNRGGRTYYADSVKGRFTISRDNAKNTVYLQMNSLKPEDTAVYYCNRRWIWTRDRGGYWGQGTQVTVSS” as the sequence, how does the “polyreactivity (PSR sort gate)” value read?
The value was “low polyreactivity”.

Which “polyreactivity (PSR sort gate)” value does the source give for “QDQHVESGGGLVQAGGSLRLSCAAYGSTFLYYAMGWFRQAPGKERELVAAITSGGSTYYADSVKGRFTISRDNPKNTVFLQMNRLKPEDTAVYYCTVFGYGYWGQGTQVTVSS” here?
The value was “high polyreactivity”.

With “QVQLVESGGGLVQAGGSHRLSGAASGFIFFYYDMGWYRQAPGKERELVAAISWSGSSTYYADSVNGRFTISRDNAKNTVYLQMNSLNTEDTAVYYCAARYAPSQDWDEYYYWGQGTQVTLSS” as the sequence, how does the “polyreactivity (PSR sort gate)” value read?
The value was “low polyreactivity”.

With “QVQLEESGGGLVQAGGSLRLSCAASGFTFELYAMGWYRQAPGKVRELVAAISYSGGSTYYADSVKGRFTISRDNAKNTVYLQMNSLKPEDTAVYYCNAVYWPYSGPVYTIVDYWGQGTQVTVSS” as the sequence, how does the “polyreactivity (PSR sort gate)” value read?
The value was “low polyreactivity”.

Which “polyreactivity (PSR sort gate)” value does the source give for “QVQLVESGGGLVQAGGSLRLICAASGTTFLSYAMGWYRQAQGKDRELVAAISWSGGRTYYAHSVKGRFTISRDNAKNTVYLQMNSLKPEDTAVYYCAAPHVPFTKHEYEYWGQGTQVTLSS” here?
Its value is “low polyreactivity”.

For “QVQLVESGGGLYQAGGSLRLSCAASGFIFDPYARGWYRQAPGKEMELVASITWYGGRTYYADSVKGRFTISRDNAKNTVYLQMNSLKPEDPAVYYCAARGYTVWDDYWGQGTQVTVSS”, which “polyreactivity (PSR sort gate)” value is on record?
Its value is “high polyreactivity”.

For “QVQLVESGGGLVQAGGSLRLSCAASGSTFYYNAMGWYRQAPGKERELVAAINRGGITYYADSVKGRFTISRDNAKNTVYLQMNSLKPEDTAVYYCAASRYPRSYVSYYYWGQGTQVTVSS”, which “polyreactivity (PSR sort gate)” value is on record?
Its value is “high polyreactivity”.

For “QVQLVESGGGLVQAGGSLRLSCAASGSTYANAMGWYRQAPGKERELVAAITDNGGRTYYADSVKGRFTISRDNAKNTFYLQMNSLKPEDTAVYYCAARSSVWGQGTQVTVSS”, which “polyreactivity (PSR sort gate)” value is on record?
The value was “low polyreactivity”.

Which “polyreactivity (PSR sort gate)” value does the source give for “QVKLVESGGGLVQAGGSLRLSCAASGFTFTWYVMGWYRQAPGKESELVAAISRSGGSKYYADSVKGRFTISRDNAKNTVYLQMNRLKPEDTAVYYCADVGTSSYDYWGQGTQVTVSS” here?
The value was “high polyreactivity”.

With “QVQLVESGGGLVQAGGSLRLTCAATGSTFHLYGMGWYRKAPGKESELVAAITKRGTSTYYADSVKGRFTISRDNAKNTVYLQINSLKPEDTAVYYCADEYTKEQRGFDYWGQGTQVTLSS” as the sequence, how does the “polyreactivity (PSR sort gate)” value read?
The value was “high polyreactivity”.

For “QVQLVESGRGLVQAGGSLRLSCAASGITFLDYAMGWYRQAPGKERELVAAITKSGGSTYYADSVKGRFTISRDNAKNTVFLQMNSLKPEDTAVYYCAKGRHPLWVEQPYEFDYWGQGTQVTVSS”, which “polyreactivity (PSR sort gate)” value is on record?
The value was “low polyreactivity”.

With “QVQLVESGGGLVQAGGSLRLSCAASGSIFGTYAMGWYRQAPGKAREFVADISAIGTSTYYADSVKGRFTISRDNAKNTVYLQMNSLKPEDTAVYYCAAESFDTVEYDYWGQGTQVTVSS” as the sequence, how does the “polyreactivity (PSR sort gate)” value read?
The value was “low polyreactivity”.

Which “polyreactivity (PSR sort gate)” value does the source give for “QVQLVESGGGLVQAGGSLRLSCAATGSTFARYAMGWSRQAPGKERELVAAISRRGGSTYYADSVTGRFTLSRDNAKNTVYLQMNSLNQEDTAVDSCAARYGIISSFEYDYWGQGTQVTVSS” here?
The value was “high polyreactivity”.

Which “polyreactivity (PSR sort gate)” value does the source give for “QVQLVESGGGLVQAGGSLRLSCAASGRIFSRYAMGWYLQAPGKERELVAAISWSGGSTYYADSVKGRFTISRDNAKNTVYLQMNSLKPEDTAVYYCAAKRQYTEYNYWGQGTQVTVSS” here?
Its value is “high polyreactivity”.

Which “polyreactivity (PSR sort gate)” value does the source give for “QVQLVESGGGLVQAGGSLRLSCAASGRTFVKYAMGWYRQAPGKERELVAAISWSGGSTYYADSVKGRFTISRDNAKNTVYLQMNSLKPEDTAVYYCAAPSSRGQGRNFDYWGQGTQVTVSS” here?
The value was “high polyreactivity”.

Which “polyreactivity (PSR sort gate)” value does the source give for “QDQLVESGGGLVQAGGSLRLSCAASGRIFTQNRMGWYRQAPGKERELVAVITSSGGSTYYADSVKGRFTISRDNAKNTVYLQMNSLKPEDTAVYYCAAQLVRYVGYYRFDYWGQGTQVTVSS” here?
The value was “low polyreactivity”.

For “QVQLVESGGGLDQARGTLSLICAASGSIFRHYAMGWYRQAPWKERELVAAISGSGATTYYADSVKGRFTISRDNAKNTVYLQMKSLKPVDNAVYYCAARTTYITTWVYRHNYTYYYWGQGTQVTVSS”, which “polyreactivity (PSR sort gate)” value is on record?
The value was “high polyreactivity”.

For “QVQLAESGGGFVQAGGTLRLTCAASGSIFTSNAMGWFRQAPGKERELVAPSSWRGTSTYYADSVKGRYTISRDNAKTTVYLQMNSLKPVDTAVYYCAKYRRFRPYGSNGIYDYWGQGTQVTVSS”, which “polyreactivity (PSR sort gate)” value is on record?
The value was “high polyreactivity”.

For “QVQLVESGVGLVQAGGSLRLSCAASGSTFVYMGWYRQAPGKEREFVAAITWSGGSTYYADSVKGRFTISRDNAKNTVYLQMNSLKPEDTAVYYCNAVSVFPGWARYYYWGQGTQVTVSS”, which “polyreactivity (PSR sort gate)” value is on record?
The value was “low polyreactivity”.

With “QVQLVESGGVLVQAGGSLRLSCAASGSIFGSYGMGWYRQAPGKERELVAAIRVSGGSTYYADSVKGRFTISRDNAKNTVYLQMNSLKPEDTAVYYCAARARSTPRKYYYTRGYWGQGTQVTVSS” as the sequence, how does the “polyreactivity (PSR sort gate)” value read?
Its value is “high polyreactivity”.

With “QVLLVESGGGLVQAGGSHRLSCAASGITIRFYAMGWYRQAPGKEREFHAAISRSGSTYYADSVKGRFTISRDNAKNTVYLHLNSVKPEDTAVYYCAADSYRSAQGLDYWGQGTQVTVSS” as the sequence, how does the “polyreactivity (PSR sort gate)” value read?
The value was “high polyreactivity”.

For “QVQLVESGGGLVQAGGSLRLSCAASGSTFPYVMGWYTPAPGKERELVAAISQRTGSTYYADSVKGRFTISRDNAKNSVYLQMNILKPEDTAVYYCAKPVYLSPSRYDYWGQGTQVTVSS”, which “polyreactivity (PSR sort gate)” value is on record?
The value was “high polyreactivity”.

For “QVQLVESGGGLVQAGGSLRLSCAASGFTFYKNAMGWYRQAPGKERELVAAITRRGSRTYYADSVKGRFTISRDNAKNTVYLQMNSLKPEDTAVYYCAADDGSDAEYYYWGQGTQVTVSS”, which “polyreactivity (PSR sort gate)” value is on record?
Its value is “high polyreactivity”.

Which “polyreactivity (PSR sort gate)” value does the source give for “QVQLVESGGGIVQAGGSLRLSCAASGFIISYNAMVWYRQAPGKERELVAAISSRGGSTYYADSVKGRFTISRDNAKNTVYLQMNSLKPEDTAVYYCAVASRRVYTAPYDYWGQGTQVSVSS” here?
Its value is “high polyreactivity”.

Which “polyreactivity (PSR sort gate)” value does the source give for “QVQLVESGGGLVQAGGSLRLSCAASGSTFEYNAMGWYRQAPGKERELVASSTNYADSVKGRFTISRDNAKNTVYLQMNSLKPEDTAVYYCAKTYWYPYGYWGQGTQVTVSS” here?
The value was “low polyreactivity”.

For “QVQLVESGGGLVQAGGSLRLSCAASGFTFGYYAMGWYRQAPGKERELVASISSGGSTNYADSVKGRFTISRDNAKNTVYLQMNSLKPEDTAVYYCNKRAYYGRYDYWGQGTQVTVSS”, which “polyreactivity (PSR sort gate)” value is on record?
The value was “high polyreactivity”.

With “QVQLEDSGGGLVQAGGSLRLSCAASGFTFGVYAMGWYRQAPGKQRELVAAITSGGGRTYADSVKWRFTISRDNAKNTVYLQMNSLKPEDTAVYYCAAEGVPLRVVWDYSYWDYDYDYWGQGTQVTVSS” as the sequence, how does the “polyreactivity (PSR sort gate)” value read?
Its value is “low polyreactivity”.

For “QVQLVESGGGLVQAGGSLRLSCAASGRSFRRYAMGWYRQAPVKDRELVATNTSNGGSTYYADSVKGRFTISRDNAMHTVDFQLNSLKPEDTAVYYCARDLTYYRSRYDYWGQGTQVTVSS”, which “polyreactivity (PSR sort gate)” value is on record?
The value was “high polyreactivity”.

Which “polyreactivity (PSR sort gate)” value does the source give for “QGQLVESGGGLVQAGGSLRLSCAASGGIFSDYAMGWYIQEPGKEREFVAAISVRGTSTDYADSVKGRFTISRDNAKNTVYLQMNSLKPEDTAVYYCNAQGAPQVRDVLPYEFDYWGQGTQVTVSS” here?
Its value is “low polyreactivity”.

Which “polyreactivity (PSR sort gate)” value does the source give for “QVQLVESGGGLVQAGGSLRLSCAASGRIFNQYGMGWYRQAPGKERELVAAIRSGDSTNYADSVKGRFTISRDNAKNTVYLQMNSLKPEDTAVYYCKAVPSQHDEFDYWGQGTQVTVSS” here?
Its value is “low polyreactivity”.

For “QVQLVESGGGLVQAGGSLRLSCAASGRIIGINAMGWYRQAPGKERELVATITSGGDTNYADSVKGRFTISRDNAKNTVYLQMNSLKPEDTAVYYCNAESYGLGFGYDYWGQGTQVTVSS”, which “polyreactivity (PSR sort gate)” value is on record?
The value was “low polyreactivity”.
